In test [1] the target is GST-syntaxin 1A H3 domain construct Syn 1A16 (amino acids 191-266) (Schistosoma japonicum; rat). Kind of test: 20S complex on GST-Syn 1A16 beads, ATP and Mg++, Western blot densitometry. (In general: In western blotting, separated proteins are transferred to a membrane and probed.)
Test [2] concerns the target GST-syntaxin 1A deletion mutant Syn 1A17 (amino acids 4-240) (Schistosoma japonicum; rat). Kind of test: GST-syntaxin deletion mutant on glutathione beads, soluble ligand, Western blot densitometry; FIG. 4C row 5 from top, row label only in the figure (assigned by Table 1 order and paragraph 328).
Test [3] addresses GST-syntaxin 1A (Syn1A11) point mutant M1: R198A, I202A (Schistosoma japonicum; rat). Kind of test: GST-syntaxin point mutant on glutathione beads, soluble ligand, Western blot densitometry, FIG. 5B.
The target of test [4] is GST-syntaxin 1A (Syn1A11) point mutant M3: L212A, F216A (Schistosoma japonicum; rat). The test is described as above.
In test [5] the target is GST-syntaxin 1A (Syn1A11) point mutant 34 (Schistosoma japonicum; rat). The description is as above.
The target in test [6] is GST-syntaxin 1A deletion mutant Syn 1A5 (amino acids 4-114) (Schistosoma japonicum; rat). Kind of test: GST-syntaxin deletion mutant on glutathione beads, soluble ligand, Western blot densitometry; FIG. 4C row 2 from top, row label only in the figure (assigned by Table 1 order and paragraph 328).
In test [7] the target is GST-syntaxin 1A cytoplasmic domain fusion protein (Syn 1A11, amino acids 4-266), immobilized on glutathione agarose beads (Schistosoma japonicum; rat). The experiment in a line: 20S complex on GST-Syn 1A11 beads, ATP and Mg++, Western blot densitometry.
Test [8] addresses GST-syntaxin 1A deletion mutant Syn 1A17 (amino acids 4-240) (Schistosoma japonicum; rat). The experiment in a line: 20S complex on GST-Syn 1A17 beads, ATP and Mg++, Western blot densitometry.
Test [9] deals with GST-SNAP-25, immobilized on glutathione agarose beads (Schistosoma japonicum; mouse). Kind of test: GST pull-down on glutathione agarose beads, Western blot (anti-α-SNAP), densitometry, FIG. 3.
The target in test [10] is GST-VAMP (full cytoplasmic domain of VAMP), immobilized on glutathione agarose beads (Schistosoma japonicum; rat). The description is as above.
For test [11], the target named is GST (glutathione-S-transferase) alone, immobilized on glutathione agarose beads (Schistosoma japonicum) [GST: P08515]. The description is as above.
Test [12] concerns the target GST-syntaxin 1A cytoplasmic domain fusion protein (Syn 1A11, amino acids 4-266), immobilized on glutathione agarose beads (Schistosoma japonicum; rat). Described as above.
The target is the same in test [13]. The experiment in a line: 20S complex on GST-Syn 1A11 beads, ATP and MgCl2, Western blot densitometry.

“And” between values parts separate entries of the source, which are not always exact repeats. Equal entries are not always repeated.

Three substances from patent US5693476 can be followed below.

His-tagged α-SNAP (soluble NSF attachment protein), soluble recombinant, sequence (P81125 whole entry): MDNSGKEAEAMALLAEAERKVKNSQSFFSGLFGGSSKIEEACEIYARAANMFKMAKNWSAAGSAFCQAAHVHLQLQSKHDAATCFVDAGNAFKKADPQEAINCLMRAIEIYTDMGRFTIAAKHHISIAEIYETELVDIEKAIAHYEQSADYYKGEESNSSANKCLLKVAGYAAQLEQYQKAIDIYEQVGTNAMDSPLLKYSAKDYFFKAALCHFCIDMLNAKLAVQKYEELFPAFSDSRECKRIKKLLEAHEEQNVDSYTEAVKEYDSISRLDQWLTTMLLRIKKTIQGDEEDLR

In the case of “SNAP-25 (synaptosomal-associated protein of 25 kDa), soluble recombinant”, the percent dissociated in the presence of ATP and Mg++ in test [1] is 5%; in [8] it was 0%. The densitometry pixel value was 623 pixel value in test [2]; 586 pixel value in test [3]; 866 pixel value in test [4]; 712 pixel value in [5]; 19 pixel value in [6]. This substance yielded a percent remaining associated with the GST-syntaxin beads in [7] of 90%.

In the case of “His-tagged α-SNAP (soluble NSF attachment protein), soluble recombinant (from UniProt P81125)”, the results for the percent dissociated in the presence of ATP and Mg++ in test [1] and in [8] were 0% and 25%, respectively. Further, the densitometry pixel value was 33 pixel value in [9]; 8 pixel value in test [10]; 0 pixel value in test [11]; 1830 pixel value in test [12]; 1660 pixel value in [2]; 53 pixel value in test [3]. Besides, the results for the densitometry pixel value in [4], in [5] and in [6] were 23 pixel value, 10 pixel value and 0 pixel value, respectively. Moreover, the percent dissociated from syntaxin following ATP hydrolysis by NSF in [13] is 70% and 90%.

On to “VAMP (vesicle-associated membrane protein; VAMP 2), soluble recombinant”, for which the percent dissociated in the presence of ATP and Mg++ in [1] and in test [8] was 0% each time. Also, the densitometry pixel value in test [2] amounted to 0 pixel value; in test [3], 37 pixel value; in test [4] it was 0 pixel value; in test [5], 0 pixel value; in [6], 0 pixel value. Besides, the percent dissociated from syntaxin following ATP hydrolysis by NSF in [13] was 80% and 90%.
